Source: the supplement of paper PMC9112550, “Optimization of the antimicrobial peptide Bac7 by deep mutational scanning” (BMC Biology, 2022)
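Also: peptides expressed intracellularly from a pBAD plasmid library in pooled LB shake-flask culture, induced with 0.3% L-arabinose, DNA abundance read by NGS, three biological replicates, DESeq2 with apeglm shrinkage.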

What follows are sequences tested on Escherichia coli TOP10 (assay: shrunken log2 fold change of peptide-encoding DNA abundance (4.5 h post-induction vs induction); higher = less antimicrobial activity (less host growth inhibition)). Conditions: time post-induction: 4.5 h; library: site-saturation at positions 5, 18, 19, 20.
In the case of RRIRERPPRLPRPRPRPWNQPRP, the “shrunken log2 fold change” value is reported as -0.124. RRIRHRPPRLPRPRPRPQKAPRP was tested, and the “shrunken log2 fold change” value was -0.0296. In the case of RRIRWRPPRLPRPRPRPTFGPRP, the “shrunken log2 fold change” value is reported as -0.0806. RRIRSRPPRLPRPRPRPYEHPRP was tested, and the “shrunken log2 fold change” value was -0.493. RRIRSRPPRLPRPRPRPIWNPRP was tested, and the “shrunken log2 fold change” value was -0.316. For RRIRWRPPRLPRPRPRPIKQPRP, the “shrunken log2 fold change” value was -0.00809. For RRIRVRPPRLPRPRPRPRNDPRP, the “shrunken log2 fold change” value was -0.00857. For RRIRWRPPRLPRPRPRPCIAPRP, the “shrunken log2 fold change” value was 0.00205. With RRIRERPPRLPRPRPRPLFEPRP the “shrunken log2 fold change” value was -0.0266. In the case of RRIRLRPPRLPRPRPRPVLIPRP, the “shrunken log2 fold change” value is reported as -0.303. RRIRRRPPRLPRPRPRPNYAPRP was tested, and the “shrunken log2 fold change” value was 0.0933. With RRIRTRPPRLPRPRPRPKFFPRP the “shrunken log2 fold change” value was -0.00469. With RRIRKRPPRLPRPRPRPFAAPRP the “shrunken log2 fold change” value was 0.662. For RRIRCRPPRLPRPRPRPSVSPRP, the “shrunken log2 fold change” value was -0.185. For RRIRCRPPRLPRPRPRPIGTPRP, the “shrunken log2 fold change” value was -0.279. For RRIRNRPPRLPRPRPRPMRRPRP, the “shrunken log2 fold change” value was -0.0657. With RRIRLRPPRLPRPRPRPMDSPRP the “shrunken log2 fold change” value was -0.172. With RRIRTRPPRLPRPRPRPHYYPRP the “shrunken log2 fold change” value was -0.744. With RRIRERPPRLPRPRPRPKQQPRP the “shrunken log2 fold change” value was -0.0499. In the case of RRIRMRPPRLPRPRPRPHLIPRP, the “shrunken log2 fold change” value is reported as 0.133. With RRIRNRPPRLPRPRPRPIWAPRP the “shrunken log2 fold change” value was 0.0814. RRIRLRPPRLPRPRPRPPQHPRP was tested, and the “shrunken log2 fold change” value was 0.197. With RRIRGRPPRLPRPRPRPSNGPRP the “shrunken log2 fold change” value was 2.8. With RRIRARPPRLPRPRPRPTYDPRP the “shrunken log2 fold change” value was -0.0892. With RRIRWRPPRLPRPRPRPSCQPRP the “shrunken log2 fold change” value was 0.232. With RRIRWRPPRLPRPRPRPACAPRP the “shrunken log2 fold change” value was 0.766. For RRIRARPPRLPRPRPRPMGWPRP, the “shrunken log2 fold change” value was 0.468. In the case of RRIRTRPPRLPRPRPRPDNDPRP, the “shrunken log2 fold change” value is reported as 0.0177. RRIRDRPPRLPRPRPRPDDEPRP was tested, and the “shrunken log2 fold change” value was 0.425. In the case of RRIRERPPRLPRPRPRPDVRPRP, the “shrunken log2 fold change” value is reported as 0.0184. With RRIRERPPRLPRPRPRPYNSPRP the “shrunken log2 fold change” value was -0.0287. For RRIRIRPPRLPRPRPRPKGIPRP, the “shrunken log2 fold change” value was -0.13. With RRIRTRPPRLPRPRPRPVCVPRP the “shrunken log2 fold change” value was 0.182. With RRIRMRPPRLPRPRPRPNPIPRP the “shrunken log2 fold change” value was 0.188. For RRIRRRPPRLPRPRPRPCVDPRP, the “shrunken log2 fold change” value was 0.163. In the case of RRIRERPPRLPRPRPRPYDMPRP, the “shrunken log2 fold change” value is reported as -0.222. In the case of RRIRRRPPRLPRPRPRPYDTPRP, the “shrunken log2 fold change” value is reported as 0.0504. With RRIRNRPPRLPRPRPRPFTRPRP the “shrunken log2 fold change” value was 0.00645. For RRIRYRPPRLPRPRPRPSSIPRP, the “shrunken log2 fold change” value was -0.141. With RRIRKRPPRLPRPRPRPERTPRP the “shrunken log2 fold change” value was 0.772. RRIRLRPPRLPRPRPRPEFFPRP was tested, and the “shrunken log2 fold change” value was 0.02. For RRIRKRPPRLPRPRPRPSYAPRP, the “shrunken log2 fold change” value was 0.0314. In the case of RRIRHRPPRLPRPRPRPQYNPRP, the “shrunken log2 fold change” value is reported as -0.655. With RRIRLRPPRLPRPRPRPQGVPRP the “shrunken log2 fold change” value was -0.0316. For RRIRVRPPRLPRPRPRPASPPRP, the “shrunken log2 fold change” value was 0.102. In the case of RRIRARPPRLPRPRPRPFLFPRP, the “shrunken log2 fold change” value is reported as 0.162. With RRIRHRPPRLPRPRPRPTLFPRP the “shrunken log2 fold change” value was 0.267. RRIRCRPPRLPRPRPRPLICPRP was tested, and the “shrunken log2 fold change” value was -0.499. RRIRGRPPRLPRPRPRPTEFPRP was tested, and the “shrunken log2 fold change” value was 0.327. RRIRERPPRLPRPRPRPATIPRP was tested, and the “shrunken log2 fold change” value was -0.105. RRIRSRPPRLPRPRPRPFFCPRP was tested, and the “shrunken log2 fold change” value was -0.11. With RRIRARPPRLPRPRPRPITRPRP the “shrunken log2 fold change” value was 0.00663. RRIRMRPPRLPRPRPRPTGSPRP was tested, and the “shrunken log2 fold change” value was 1.34. For RRIRYRPPRLPRPRPRPCDAPRP, the “shrunken log2 fold change” value was -0.255. In the case of RRIRYRPPRLPRPRPRPQIIPRP, the “shrunken log2 fold change” value is reported as -0.248. For RRIRGRPPRLPRPRPRPMRCPRP, the “shrunken log2 fold change” value was 0.581. For RRIRVRPPRLPRPRPRPDYRPRP, the “shrunken log2 fold change” value was -0.00433. RRIRYRPPRLPRPRPRPANHPRP was tested, and the “shrunken log2 fold change” value was -0.463. With RRIRKRPPRLPRPRPRPTISPRP the “shrunken log2 fold change” value was -0.279. With RRIRLRPPRLPRPRPRPVGQPRP the “shrunken log2 fold change” value was 0.0826. For RRIRHRPPRLPRPRPRPNMSPRP, the “shrunken log2 fold change” value was -0.245. For RRIRRRPPRLPRPRPRPCQFPRP, the “shrunken log2 fold change” value was -0.0684. With RRIRVRPPRLPRPRPRPCDIPRP the “shrunken log2 fold change” value was -0.149. For RRIRKRPPRLPRPRPRPHSDPRP, the “shrunken log2 fold change” value was 0.0765. With RRIRGRPPRLPRPRPRPWKEPRP the “shrunken log2 fold change” value was 0.275. RRIRARPPRLPRPRPRPYPFPRP was tested, and the “shrunken log2 fold change” value was -0.63. With RRIRCRPPRLPRPRPRPHQFPRP the “shrunken log2 fold change” value was 0.0354. For RRIRSRPPRLPRPRPRPYYGPRP, the “shrunken log2 fold change” value was -0.197. In the case of RRIRCRPPRLPRPRPRPLCDPRP, the “shrunken log2 fold change” value is reported as 0.54. In the case of RRIRDRPPRLPRPRPRPNNNPRP, the “shrunken log2 fold change” value is reported as -0.667. RRIRNRPPRLPRPRPRPRPHPRP was tested, and the “shrunken log2 fold change” value was 0.226. For RRIRHRPPRLPRPRPRPRRRPRP, the “shrunken log2 fold change” value was 0.0874. In the case of RRIRQRPPRLPRPRPRPGHCPRP, the “shrunken log2 fold change” value is reported as 0.217. For RRIRCRPPRLPRPRPRPSRCPRP, the “shrunken log2 fold change” value was 0.137. RRIRFRPPRLPRPRPRPGGHPRP was tested, and the “shrunken log2 fold change” value was -0.00918. For RRIRKRPPRLPRPRPRPSQIPRP, the “shrunken log2 fold change” value was 0.00892. RRIRLRPPRLPRPRPRPIPSPRP was tested, and the “shrunken log2 fold change” value was -0.177. RRIRNRPPRLPRPRPRPHWAPRP was tested, and the “shrunken log2 fold change” value was 0.13. With RRIRCRPPRLPRPRPRPILQPRP the “shrunken log2 fold change” value was -0.0117. In the case of RRIRDRPPRLPRPRPRPFSKPRP, the “shrunken log2 fold change” value is reported as -0.488. With RRIRIRPPRLPRPRPRPAYFPRP the “shrunken log2 fold change” value was -0.411. With RRIRERPPRLPRPRPRPQNNPRP the “shrunken log2 fold change” value was -0.911. In the case of RRIRHRPPRLPRPRPRPGRQPRP, the “shrunken log2 fold change” value is reported as -0.0906. RRIRCRPPRLPRPRPRPVGHPRP was tested, and the “shrunken log2 fold change” value was 0.0304. For RRIRRRPPRLPRPRPRPRRQPRP, the “shrunken log2 fold change” value was 0.554. With RRIRYRPPRLPRPRPRPVERPRP the “shrunken log2 fold change” value was 0.00806. For RRIRHRPPRLPRPRPRPKWFPRP, the “shrunken log2 fold change” value was -0.233. With RRIRIRPPRLPRPRPRPSIDPRP the “shrunken log2 fold change” value was -0.342. RRIRCRPPRLPRPRPRPEAGPRP was tested, and the “shrunken log2 fold change” value was 0.4. With RRIRVRPPRLPRPRPRPGCMPRP the “shrunken log2 fold change” value was -0.076. In the case of RRIRIRPPRLPRPRPRPYPDPRP, the “shrunken log2 fold change” value is reported as -0.039. In the case of RRIRRRPPRLPRPRPRPSNIPRP, the “shrunken log2 fold change” value is reported as -0.528. For RRIRHRPPRLPRPRPRPIDNPRP, the “shrunken log2 fold change” value was -0.359. With RRIRCRPPRLPRPRPRPLNLPRP the “shrunken log2 fold change” value was -0.489. With RRIRERPPRLPRPRPRPHTVPRP the “shrunken log2 fold change” value was -0.346. With RRIRHRPPRLPRPRPRPTITPRP the “shrunken log2 fold change” value was -0.384. With RRIRVRPPRLPRPRPRPTERPRP the “shrunken log2 fold change” value was 0.302. RRIRIRPPRLPRPRPRPYKFPRP was tested, and the “shrunken log2 fold change” value was -0.616. RRIRYRPPRLPRPRPRPCCQPRP was tested, and the “shrunken log2 fold change” value was 0.0173. RRIRFRPPRLPRPRPRPYTTPRP was tested, and the “shrunken log2 fold change” value was -0.333. For RRIRHRPPRLPRPRPRPMWMPRP, the “shrunken log2 fold change” value was -0.000946. RRIRKRPPRLPRPRPRPKCHPRP was tested, and the “shrunken log2 fold change” value was 0.182. RRIRYRPPRLPRPRPRPHRRPRP was tested, and the “shrunken log2 fold change” value was -0.0466. RRIRGRPPRLPRPRPRPAVVPRP was tested, and the “shrunken log2 fold change” value was 0.488. In the case of RRIRRRPPRLPRPRPRPETGPRP, the “shrunken log2 fold change” value is reported as 0.304. RRIRDRPPRLPRPRPRPVVGPRP was tested, and the “shrunken log2 fold change” value was 0.642. RRIRPRPPRLPRPRPRPKVQPRP was tested, and the “shrunken log2 fold change” value was 0.327. RRIRHRPPRLPRPRPRPNNLPRP was tested, and the “shrunken log2 fold change” value was -0.596. For RRIRRRPPRLPRPRPRPVIFPRP, the “shrunken log2 fold change” value was 0.145. With RRIRMRPPRLPRPRPRPPQNPRP the “shrunken log2 fold change” value was 1.13. For RRIRVRPPRLPRPRPRPHGRPRP, the “shrunken log2 fold change” value was -0.0651. For RRIRYRPPRLPRPRPRPECEPRP, the “shrunken log2 fold change” value was -0.185. For RRIRYRPPRLPRPRPRPFVGPRP, the “shrunken log2 fold change” value was -0.193. In the case of RRIRIRPPRLPRPRPRPYTFPRP, the “shrunken log2 fold change” value is reported as -2.16. For RRIRMRPPRLPRPRPRPNQNPRP, the “shrunken log2 fold change” value was 0.079. For RRIRFRPPRLPRPRPRPCFPPRP, the “shrunken log2 fold change” value was -0.407. For RRIRDRPPRLPRPRPRPWNSPRP, the “shrunken log2 fold change” value was -0.237. In the case of RRIRVRPPRLPRPRPRPYALPRP, the “shrunken log2 fold change” value is reported as -0.848. In the case of RRIRARPPRLPRPRPRPWTCPRP, the “shrunken log2 fold change” value is reported as 0.0519. In the case of RRIRCRPPRLPRPRPRPSGTPRP, the “shrunken log2 fold change” value is reported as -0.0132. For RRIRERPPRLPRPRPRPEAVPRP, the “shrunken log2 fold change” value was 0.292. For RRIRWRPPRLPRPRPRPTTMPRP, the “shrunken log2 fold change” value was -0.0212. With RRIRRRPPRLPRPRPRPHGRPRP the “shrunken log2 fold change” value was 0.0549. For RRIRCRPPRLPRPRPRPMETPRP, the “shrunken log2 fold change” value was -0.0136. With RRIRVRPPRLPRPRPRPCEQPRP the “shrunken log2 fold change” value was 0.211.
